Positions count from the first letter of the chain named. Each block holds one binder with its values, some of them ahead of it.
Columns and labels:
[1] = target: hPD-1-HIS (human) (UniProt Q15116); assay: ELISA, plate-coated PD-1 protein, protocol of Example 1
[2] = target: hPD-1-HIS (human) (UniProt Q15116); assay: ELISA, plate-coated PD-1 protein, anti-human IgG detection

Chain of hPD-1-HIS (human) (Q15116 25-167 limits assumed): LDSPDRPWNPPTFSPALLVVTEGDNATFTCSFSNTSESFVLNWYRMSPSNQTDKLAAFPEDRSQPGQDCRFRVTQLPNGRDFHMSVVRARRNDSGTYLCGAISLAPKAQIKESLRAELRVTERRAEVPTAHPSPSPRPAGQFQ

hPD-1-HIS Binding (OD 450) [1]: 0.267 OD 450
B2: 5C2-6 (antibody, human IgG1, kappa, V domains shown)
VH: QVQLVQSGAEVKKPGASVKVSCKASGYTFTSYWMHWVRQAPGQGLEWMGRIHPSDSDTNYNQKFKGRVTLTVDTSTSTAYMELSSLRSEDTAVYYCAPYVDLESGFAYWGQGTLVTVSS
VL: DIAMTQTPSSLSASIGDRVTIACRASQGISSALAWYQQKPGRTPKLLIFDASTLQSGVPSRFSGSGSGTDFTLTISSLQPEDFATYYCQQFNTYSSVTFGQGTRLEIKR

hPD-1-HIS Binding (OD 450) [1]: 0.255 OD 450
B4: 5C2-9 (antibody, human IgG1, kappa, V domains shown)
VH: QVQLVQSGAEVKKPGASVKVSCKASGQTFTNYLMHWVRQAPGQGLEWMGRIPLSDRDTNYNQKFKGRVTLTVDTSTSTAYMELSSLRSEDTAVYYCAPYGRSASGFSSWGQGTLVTVSS
VL: DIQMTQSPSSLSASVGDRVTITCRASQDVSTALAWYQQKPGKAPKLLIYWASTRHSGVPDRFSGSGSGTDFTLTISSLQPEDFATYYCQQGSSTPLTFGGGTKVEIKR

hPD-1-HIS Binding (OD 450) [1]: 0.264 OD 450
B5: 5C2-7 (antibody, human IgG1, kappa, V domains shown)
VH: B2 VH with Q43M, S54I, D55Y, S56R, D101N, L102Y, E103G, S104D
VL: B4 VL with S10T, S56I, Q89H, G91D, S92Y, S93I, L96R

hPD-1-HIS Binding (OD 450) [1]: 0.312 OD 450
B7: 5C2-4 (antibody, human IgG1, kappa, V domains shown)
VH: B2 VH with S31R, S54T, D57V, Y99D, D101N, L102Y, E103A, S104R, G105A, Y108H
VL: B4 VL with G91H, S92Y, S93G, T94S, L96W

hPD-1-HIS Binding (OD 450) [1]: 0.262 OD 450
B8: 5C2-8 (antibody, human IgG1, kappa, V domains shown)
VH: QVQLVQSGAEVKKPGASVKVSCKASGYTFNSYLMHWVRQAPGMGLEWMGRIRPNYSDTNYNQKFKGRVTLTVDTSTSTAYMELSSLRSEDTAVYYCAPYGNNASGFSYWGQGTLVTVSS
VL: B4 VL with G91H, S92Y, S93R, T94S, L96W

hPD-1-HIS Binding (OD 450) [1]: 0.286 OD 450
B9: 5C2-5 (antibody, human IgG1, kappa, V domains shown)
VH: QVQLVQSGAEVKKPGASVKVSCKASGYTFGIYWMHWVRQAPGQGLEWMGRILPSNGYTNYNQKFKGRVTLTVDTSTSTAYMELSSLRSEDTAVYYCAPYGIYTRDFSHWGQGTLVTVSS
VL: B4 VL with G91R, S92D, S93T, L96R

Further lines, the binder ahead of its results:

B1: 5C2-3 (antibody, human IgG1, kappa, V domains shown)
VH: B2 VH with Y99K, V100G, D101N, L102Y, E103V, S104V, G105R
VL: DIVMTQSPSSLSASVGDRVTITCRASQGIRNDLGWYQQKPGKAPKLLIYAASSLQSGVPSRFSGSGSDTDFTLTISSLQPEDFATYYCLQDYNYPWTFGQGTKVDIKR
hPD-1-HIS Binding (OD 450) [1]: 0.345 OD 450

B3: 5C2-1 (antibody, human IgG1, kappa, V domains shown)
VH: QVQLVQSGAEVKKPGASVKVSCKASGYTFNSYWMHWVRQAPGQGLEWMGRIHPRGIHTNYNQKFKGRVTLTVDTSTSTAYMELSSLRSEDTAVYYCAPSSSYAWAFAHWGQGTLVTVSS
VL: B4 VL with G91H, S92Y, S93R, T94S, L96G
hPD-1-HIS Binding (OD 450) [1]: 0.791 OD 450

B6: 5C2-2 (antibody, human IgG1, kappa, V domains shown)
VH: QVQLVQSGAEVKKPGASVKVSCKASGQTFTSYRMHWVRQAPGQGLEWMGRILPIRSDTNYNQKFKGRVTLTVDTSTSTAYMELSSLRSEDTAVYYCARDAGYGSLFAAWGQGTLVTVSS
VL: B4 VL with G91H, S92D, T94S, L96G
hPD-1-HIS Binding (OD 450) [1]: 0.395 OD 450

B10: 4G9-1 (antibody, human IgG1, kappa, V domains shown)
VH: QVQLVQSGAEVKKPGASVKVSCKASGYTFTTYGINWVRQATGQGLEWMGWINTYSGVPGYAQKFQGRVTMTLNTSISTAYMELSSLRSEDTAVYYCARGGRGIAYWGQGTLVTVSS
VL: DIQLTQSPSSLSASVGDRVTITCRASQGISNSLAWFQQKPGKVPKRLIYAASNLQSGVPSRFSGSGSGTEFTLTISSLQPEDFATYYCQQSYSTPYTFGQGTKLEIKR
hPD-1-HIS Binding (OD 450) [2]: 0.874 OD 450

B11: 4G9-5 (antibody, human IgG1, kappa, V domains shown)
VH: B10 VH with G100V, G102V, I103F, A104Y, Y105H
VL: EIVMTQSPATLSVSPGERATLSCRASQSIGTSLHWYQQKPGGAPRLLIKYASESITGIPARFSGSGSGTEFTLTISSLQSEDFAVYYCQQSNSWPYTFGQGTKLEIKR
hPD-1-HIS Binding (OD 450) [2]: 0.383 OD 450

B12: 4G9-8 (antibody, human IgG1, kappa, V domains shown)
VH: B10 VH with G99V, G100E, I103D
VL: EIVLTQSPSSLSASVGDRVTITCRASQDIRRDFGWYQQKPGLAPELLIYDASRLRSGVPSRFSGSGSGTLFTFTITNLQPEDFATYYCLQDYDFPRTFGQGTKVDIKR
hPD-1-HIS Binding (OD 450) [2]: 0.346 OD 450

B13: 4G9-10 (antibody, human IgG1, kappa, V domains shown)
VH: B10 VH with G100S, R101K, I103D
VL: DIVMTQSPSSLSASVGDRVTITCRASQSISTWLAWFQQKPGKAPKLLIYKASSLKSGVPSRFSGSGSGTEFTLTISSLQPDDFATYYCQQSYSTPWTFGQGTKLEIKR
hPD-1-HIS Binding (OD 450) [2]: 0.287 OD 450

B14: 4G9-9 (antibody, human IgG1, kappa, V domains shown)
VH: B10 VH with E46K, G100V, R101H, I103V, A104S
VL: B11 VL
hPD-1-HIS Binding (OD 450) [2]: 0.31 OD 450

B15: 4G9-3 (antibody, human IgG1, kappa, V domains shown)
VH: B10 VH with G102E, I103S
VL: B11 VL
hPD-1-HIS Binding (OD 450) [2]: 0.451 OD 450

— patent publication US20250136692A1
